In patent US20250011428A1 (Novartis, published 2025):
Residue numbers refer to the chain shown, from its start.

B1: CD3_1_YTE (antibody, human IgG1, lambda)
heavy: EVQLVESGGGLVQPGGSLKLSCAASGFTFNTYAMNWVRQASGKGLEWVGRIRSKYNNYATYYADSVKDRFTISRDDSKSTLYLQMNSLKTEDTAVYYCVRHGNFGNSYVSWFAYWGQGTLVTVSSASTKGPSVFPLAPSSKSTSGGTAALGCLVKDYFPEPVTVSWNSGALTSGVHTFPAVLQSSGLYSLSSVVTVPSSSLGTQTYICNVNHKPSNTKVDKRVEPKSCDKTHTCPPCPAPELCCHPRVFLFPPKPKDTLYITREPEVTCVVTGLRDEDPEVKFNWYVDGVEVHNAKTKPREEQYCGCYSVVSVLTVLHQDWLNGKEYKCKVSNKALPAPIEKTISKAKGQPREPQVYTLPPSRDELTKNQVSLTCLVKGFYPSDIAVEWESNGQPENNYKTTPPVLDSDGSFFLYSKLTVDKSRWQQGNVFSCSVMHEALHNHYTQKSLSLSPGK
light: QAVVTQEPSLTVSPGGTVTLTCRSSTGAVTTSNYANWVQQKPGQAPRGLIGGTNKRAPWTPARFSGSLLGDKAALTLSGAQPEDEAEYFCALWYSNLWVFGGGTKLTVLGQPKAAPSVTLFPPSSEELQANKATLVCLISDFYPGAVTVAWKADSSPVKAGVETTTPSKQSNNKYAASSYLSLTPEQWKSHRSYSCQVTHEGSTVEKTVAPTECS
notes: hIgG1
B2: CD3_10 (antibody, human IgG1, lambda)
heavy: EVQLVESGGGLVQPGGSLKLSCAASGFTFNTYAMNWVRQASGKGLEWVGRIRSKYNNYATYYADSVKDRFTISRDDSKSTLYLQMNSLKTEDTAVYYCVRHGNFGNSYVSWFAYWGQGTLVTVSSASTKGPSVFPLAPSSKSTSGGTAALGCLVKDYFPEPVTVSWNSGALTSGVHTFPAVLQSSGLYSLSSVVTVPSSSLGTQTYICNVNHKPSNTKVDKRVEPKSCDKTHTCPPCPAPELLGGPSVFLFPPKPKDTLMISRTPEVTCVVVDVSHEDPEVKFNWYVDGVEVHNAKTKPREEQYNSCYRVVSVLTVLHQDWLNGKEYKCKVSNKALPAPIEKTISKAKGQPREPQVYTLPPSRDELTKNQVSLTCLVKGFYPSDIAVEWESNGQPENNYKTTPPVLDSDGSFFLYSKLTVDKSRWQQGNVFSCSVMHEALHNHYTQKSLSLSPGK
light: B1 light
notes: hIgG1
B3: CD3_7_YTE (antibody, human IgG1, lambda)
heavy: EVQLVESGGGLVQPGGSLKLSCAASGFTFNTYAMNWVRQASGKGLEWVGRIRSKYNNYATYYADSVKDRFTISRDDSKSTLYLQMNSLKTEDTAVYYCVRHGNFGNSYVSWFAYWGQGTLVTVSSASTKGPSVFPLAPSSKSTSGGTAALGCLVKDYFPEPVTVSWNSGALTSGVHTFPAVLQSSGLYSLSSVVTVPSSSLGTQTYICNVNHKPSNTKVDKRVEPKSCDKTHTCPPCPAPELLGGPSVFLFPPKPKDTLYITREPEVTCVVVDVSHEDPEVKFNWYVDGVEVHNAKTKPREEQYCSCYRVVSVLTVLHQDWLNGKEYKCKVSNKALPAPIEKTISKAKGQPREPQVYTLPPSRDELTKNQVSLTCLVKGFYPSDIAVEWESNGQPENNYKTTPPVLDSDGSFFLYSKLTVDKSRWQQGNVFSCSVMHEALHNHYTQKSLSLSPGK
light: B1 light
notes: hIgG1
B4: CD3_9 (antibody, human IgG1, lambda)
heavy: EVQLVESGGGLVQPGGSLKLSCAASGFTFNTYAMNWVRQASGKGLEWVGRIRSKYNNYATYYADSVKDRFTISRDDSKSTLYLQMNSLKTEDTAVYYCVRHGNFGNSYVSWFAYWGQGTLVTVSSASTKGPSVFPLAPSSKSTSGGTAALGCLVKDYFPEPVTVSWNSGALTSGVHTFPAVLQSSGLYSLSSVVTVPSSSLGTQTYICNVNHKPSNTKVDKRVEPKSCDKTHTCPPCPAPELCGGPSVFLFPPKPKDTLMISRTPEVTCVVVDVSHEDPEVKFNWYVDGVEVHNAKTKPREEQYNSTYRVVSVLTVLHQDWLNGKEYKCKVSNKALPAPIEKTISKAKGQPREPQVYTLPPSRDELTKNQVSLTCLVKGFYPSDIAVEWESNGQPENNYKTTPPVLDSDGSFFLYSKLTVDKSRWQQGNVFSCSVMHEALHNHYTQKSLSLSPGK
light: B1 light
notes: hIgG1
B5: CD3_6_YTE (antibody, human IgG1, lambda)
heavy: B3 heavy with L243C, G244C, C305N, C307T
light: B1 light
notes: hIgG1
B6: CD3_WT_YTE (antibody, human IgG1, lambda)
heavy: B3 heavy with C305N, C307T
light: B1 light
notes: hIgG1
B7: CD3_11_YTE (antibody, human IgG1, lambda)
heavy: B3 heavy with C307T
light: B1 light
notes: hIgG1
B8: CD3_9_YTE (antibody, human IgG1, lambda)
heavy: B3 heavy with L243C, C305N, C307T
light: B1 light
notes: hIgG1
B9: CD3_8 (antibody, human IgG1, lambda)
heavy: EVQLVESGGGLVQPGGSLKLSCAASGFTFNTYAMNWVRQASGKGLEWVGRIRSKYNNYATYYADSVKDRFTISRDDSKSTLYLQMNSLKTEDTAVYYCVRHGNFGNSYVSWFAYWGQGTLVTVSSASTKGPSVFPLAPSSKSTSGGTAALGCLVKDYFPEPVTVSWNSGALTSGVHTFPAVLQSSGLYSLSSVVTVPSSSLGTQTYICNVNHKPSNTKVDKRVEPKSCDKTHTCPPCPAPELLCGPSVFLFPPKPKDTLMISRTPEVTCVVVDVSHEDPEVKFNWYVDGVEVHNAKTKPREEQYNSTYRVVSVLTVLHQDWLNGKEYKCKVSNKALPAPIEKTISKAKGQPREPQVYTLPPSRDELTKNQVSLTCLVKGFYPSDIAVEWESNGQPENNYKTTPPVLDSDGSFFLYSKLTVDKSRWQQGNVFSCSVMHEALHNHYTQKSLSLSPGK
light: B1 light
notes: hIgG1
B10: CD3_5_YTE (antibody, human IgG1, lambda)
heavy: B3 heavy with L243C, G244C
light: B1 light
notes: hIgG1
B11: CD3_2 (antibody, human IgG1, lambda)
heavy: B1 heavy with R247S, Y260M, T262S, E264T, T272V, D276H, S309R
light: B1 light
notes: hIgG1
B12: CD3_3_YTE (antibody, human IgG1, lambda)
heavy: B1 heavy with R247S, S309R
light: B1 light
notes: hIgG1
B13: CD3_4 (antibody, human IgG1, lambda)
heavy: B3 heavy with L243C, G244C, G245H, Y260M, T262S, E264T, S306G
light: B1 light
notes: hIgG1
B14: CD3_4_YTE (antibody, human IgG1, lambda)
heavy: B3 heavy with L243C, G244C, G245H, S306G
light: B1 light
notes: hIgG1
B15: CD3_DANAPA (antibody, human IgG1, lambda, N297A)
heavy: B3 heavy with Y260M, T262S, E264T, D273A, C305A, C307T, P337A
light: B1 light
notes: hIgG1; silencing benchmark
B16: CD3_3 (antibody, human IgG1, lambda)
heavy: B1 heavy with R247S, Y260M, T262S, E264T, S309R
light: B1 light
notes: hIgG1

Each binder was assayed against T1, recombinant human hFcRn (human, UniProt P55899 24-297; P61769 21-119) (assay: SPR Biacore T200; IgG amine-coupled on CM5, hFcRn as analyte; response normalized to parental (=100)).
T1 construct: FcRn is normally a heterodimer with it
T1 sequence (P55899 24-297 limits assumed, chain 1 of 2): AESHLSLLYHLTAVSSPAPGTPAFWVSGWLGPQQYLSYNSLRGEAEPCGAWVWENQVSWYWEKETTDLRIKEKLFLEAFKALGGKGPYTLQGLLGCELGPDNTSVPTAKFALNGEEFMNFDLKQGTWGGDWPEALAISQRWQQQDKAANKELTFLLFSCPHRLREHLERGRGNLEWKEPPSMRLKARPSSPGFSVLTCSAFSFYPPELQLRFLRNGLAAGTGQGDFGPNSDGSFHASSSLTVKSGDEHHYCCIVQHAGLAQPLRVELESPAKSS
T1 sequence (P61769 21-119 limits assumed, chain 2 of 2): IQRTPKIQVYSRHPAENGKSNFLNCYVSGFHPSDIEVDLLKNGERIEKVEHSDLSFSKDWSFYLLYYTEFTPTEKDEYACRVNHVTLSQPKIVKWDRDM
Method: (§1) Kinetics and binding capacity were measured on a BIAcore® T200 instrument (GE Healthcare, Glattbrugg, Switzerland) at room temperature, with proteins diluted in running buffer 10 mM NaP, 150 mM NaCl, 0.05% Tween 20, pH7.6. A CM5 sensor chip (Sensor Chip SA, GE Healthcare Life Sciences) was used to immobilized engineered immunoglobulins by amine coupling. Then, recombinant human hFcγR1a, or recombinant human hFcγR3a (F158V), or recombinant human hFcRn, or hC1q was used as the analyte.
(§2) Binding data were acquired by subsequent injection of analyte dilution series on the reference and measuring flow cells. Zero concentration samples (running buffer only) were included to allow double referencing during data evaluation. For data evaluation, doubled referenced sensorgrams were analyzed and the maximum response reached during the experiment was monitored. Maximum response describes the binding capacity of the surface in terms of the response at saturation. Finally, measured maximum responses were normalized to the one measured using parental immunoglobulin (not engineered).

Binder | Maximum response at 1840 nM hFcRn (RU)
B1 | 290 RU
B2 | 126 RU
B3 | 284 RU
B4 | 122 RU
B5 | 720 RU
B6 | 586 RU
B7 | 230 RU
B8 | 696 RU
B9 | 126 RU
B10 | 340 RU

These binders were tested against T2, hCD3epsilon-FC antigen (human, UniProt P07766 23-126) (assay: SPR Biacore T200; hCD3epsilon-FC amine-coupled on CM5, IgG as analyte; 1:1 model, apparent KD (bivalent analyte)).
T2 construct: immobilized by amine coupling on CM5; also called human CD3epsilon
T2 sequence (P07766 23-126 limits assumed): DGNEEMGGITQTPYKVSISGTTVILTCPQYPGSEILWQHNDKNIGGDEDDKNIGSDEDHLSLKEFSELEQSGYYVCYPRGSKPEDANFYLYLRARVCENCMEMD
Method: A CM5 sensor chip (Sensor Chip SA, GE Healthcare Life Sciences) was used to immobilize hCD3epsilon-FC antigen by amine coupling. Then, engineered anti-CD3 hIgG1 were used as the analyte.
Binding data were acquired by subsequent injection of analyte dilution series on the reference and measuring flow cells. Zero concentration samples (running buffer only) were included to allow double referencing during data evaluation. For data evaluation, doubled referenced sensorgrams were analyzed by applying a 1:1 binding model analysis to generate the equilibrium dissociation constant (KD). Binding constant described Table 7 are considered as apparent KD since immunoglobulins used as analyte are bivalent for the immobilized antigen. In addition, maximum response reached during the experiment was monitored. Maximum response describes the binding capacity of the surface in terms of the response at saturation. Finally, measured maximum responses were normalized to the one measured using parental immunoglobulin (not engineered).

Binder | Kd
B11 | 2.24 nM
B12 | 2.1 nM
B1 | 2.09 nM
B3 | 2.31 nM
B13 | 3.38 nM
B14 | 2.74 nM
B5 | 2.42 nM
B15 | 3.27 nM
B6 | 2.34 nM
B16 | 2.04 nM
B10 | 3.74 nM

The binders below were run against T3, recombinant human hFcγR3a (F158V) (human, UniProt P08637 17-208) (assay: SPR Biacore T200; IgG amine-coupled on CM5, receptor as analyte; response normalized to parental (=100);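 also: measured at room temperature in pH 7.6 phosphate buffer with Tween 20, double-referenced sensorgrams, maximum response taken as binding capacity at saturation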).
T3 construct: also called FcγRIII
T3 sequence (P08637 17-208 F176V): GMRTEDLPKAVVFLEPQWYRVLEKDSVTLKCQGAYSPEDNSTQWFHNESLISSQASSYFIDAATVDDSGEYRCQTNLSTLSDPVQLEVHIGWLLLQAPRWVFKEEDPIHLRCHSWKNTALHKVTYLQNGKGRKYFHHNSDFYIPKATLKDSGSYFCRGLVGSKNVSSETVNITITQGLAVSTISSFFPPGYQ
Method: as §1, §2

Binder | Maximum response at 300 nM hFcγR3a F158V (RU)
B11 | 20 RU
B12 | 10 RU
B1 | 20 RU
B3 | 19 RU
B13 | 10 RU
B14 | 10 RU
B5 | 15 RU
B15 | 10 RU
B6 | 71 RU
B16 | 2 RU
B10 | 17 RU

Each binder was assayed against T4, recombinant human hFcγR1a (human, UniProt P12314 16-288, limits assumed) in the same assay as above.
T4 construct: recombinant, analyte in SPR; also called FcγRI
T4 sequence (P12314 16-288 limits assumed): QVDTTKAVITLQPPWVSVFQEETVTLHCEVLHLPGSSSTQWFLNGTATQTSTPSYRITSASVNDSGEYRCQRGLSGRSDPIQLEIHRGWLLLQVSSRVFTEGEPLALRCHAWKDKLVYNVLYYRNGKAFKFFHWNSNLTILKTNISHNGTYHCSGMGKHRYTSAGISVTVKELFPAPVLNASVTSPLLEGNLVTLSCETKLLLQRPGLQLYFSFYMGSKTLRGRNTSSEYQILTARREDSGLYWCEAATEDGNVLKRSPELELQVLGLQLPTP
Method: as §1, §2

Binder | Maximum response at 100 nM hFcγR1a (RU)
B11 | 5 RU
B12 | 7 RU
B1 | 6 RU
B2 | 18 RU
B3 | 31 RU
B4 | 2 RU
B13 | 4 RU
B14 | 4 RU
B5 | 10 RU
B15 | 6 RU
B6 | 97 RU
B7 | 12 RU
B16 | 3 RU
B8 | 2 RU
B9 | 2 RU
B10 | 7 RU

What follows are binders tested against T2, hCD3epsilon-FC antigen (assay: SPR Biacore T200; hCD3epsilon-FC amine-coupled on CM5, IgG as analyte).
Set-up: unit not given here

Binder | Maximum response at 125 nM hIgG1
B11 | 386
B12 | 371
B1 | 371
B3 | 367
B13 | 470
B14 | 427
B5 | 340
B15 | 392
B6 | 342
B16 | 375
B10 | 322

What follows are binders tested against hC1q (human, UniProt P02745 23-245; P02746 28-253; P02747 29-245) (assay: SPR Biacore T200; IgG amine-coupled on CM5, hC1q as analyte; response normalized to parental (=100)).
Sequence of hC1q (P02745 23-245 limits assumed, chain 1 of 3): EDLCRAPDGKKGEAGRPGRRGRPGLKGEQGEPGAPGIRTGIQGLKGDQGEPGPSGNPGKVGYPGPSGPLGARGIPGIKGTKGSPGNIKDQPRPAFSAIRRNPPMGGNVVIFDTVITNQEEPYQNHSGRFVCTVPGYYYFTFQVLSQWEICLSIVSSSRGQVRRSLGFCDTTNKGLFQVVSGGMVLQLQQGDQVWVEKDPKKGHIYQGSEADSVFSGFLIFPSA
Sequence of hC1q (P02746 28-253 limits assumed, chain 2 of 3): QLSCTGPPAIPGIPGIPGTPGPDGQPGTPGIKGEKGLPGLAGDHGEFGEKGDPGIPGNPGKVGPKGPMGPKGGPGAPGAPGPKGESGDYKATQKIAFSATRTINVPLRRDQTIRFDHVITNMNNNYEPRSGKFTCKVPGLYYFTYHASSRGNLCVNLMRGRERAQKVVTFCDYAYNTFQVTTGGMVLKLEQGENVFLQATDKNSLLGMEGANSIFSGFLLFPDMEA
Sequence of hC1q (P02747 29-245 limits assumed, chain 3 of 3): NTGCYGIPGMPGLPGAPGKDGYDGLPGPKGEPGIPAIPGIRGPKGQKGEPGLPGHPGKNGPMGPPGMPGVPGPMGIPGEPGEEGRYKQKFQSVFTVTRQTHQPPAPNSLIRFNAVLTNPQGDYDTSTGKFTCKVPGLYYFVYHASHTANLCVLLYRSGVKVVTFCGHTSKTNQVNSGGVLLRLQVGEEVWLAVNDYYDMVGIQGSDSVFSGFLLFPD
Method: as §1, §2

Binder | Maximum response at 20 nM hC1q (RU)
B2 | 3 RU
B4 | 10 RU
B15 | 1 RU
B7 | 1 RU
B8 | 4 RU
B9 | 1 RU
